Reference: patent US20150275215, “NEUTRALIZING RNA APTAMERS AGAINST PDGFBETA AND USES THEREOF IN THE THERAPY AND DIAGNOSIS OF HYPERPROLIFERATIVE DISEASES” (CONSIGLIO NAZIONALE DELLE RICERCHE, published 2015)

B1: Gint4 (ssRNA)
RNA: GGGAGACAAGAAUAAACGCUCAAUCAUAAGAGGUAUCACAUUGUCGUGGGGCAUCGAGUAAAUGCAAUUCGACAGGAGGCUCACAACAGGC
modifications: 2'-F all pyrimidines

How the values were obtained:
[1] = biological target: PDGFRbeta extracellular domain (EC-PDGFRβ) (Homo sapiens, UniProt P09619 P09619:33-532); test: filter; 1 nM radiolabeled RNA, 1-1000 nM protein; unrelated aptamer background subtracted; settings: tags: soluble, R&D Systems; label: 5'-32P
[2] = biological target: PDGFRalpha extracellular domain (EC-PDGFRα) (Homo sapiens, UniProt P16234 P16234:24-528); test: filter; no saturable binding detectable up to 1000 nM; settings: tags: soluble, R&D Systems; label: 5'-32P
PDGFRalpha extracellular domain (EC-PDGFRα), sequence (P16234 24-528, one chain of several): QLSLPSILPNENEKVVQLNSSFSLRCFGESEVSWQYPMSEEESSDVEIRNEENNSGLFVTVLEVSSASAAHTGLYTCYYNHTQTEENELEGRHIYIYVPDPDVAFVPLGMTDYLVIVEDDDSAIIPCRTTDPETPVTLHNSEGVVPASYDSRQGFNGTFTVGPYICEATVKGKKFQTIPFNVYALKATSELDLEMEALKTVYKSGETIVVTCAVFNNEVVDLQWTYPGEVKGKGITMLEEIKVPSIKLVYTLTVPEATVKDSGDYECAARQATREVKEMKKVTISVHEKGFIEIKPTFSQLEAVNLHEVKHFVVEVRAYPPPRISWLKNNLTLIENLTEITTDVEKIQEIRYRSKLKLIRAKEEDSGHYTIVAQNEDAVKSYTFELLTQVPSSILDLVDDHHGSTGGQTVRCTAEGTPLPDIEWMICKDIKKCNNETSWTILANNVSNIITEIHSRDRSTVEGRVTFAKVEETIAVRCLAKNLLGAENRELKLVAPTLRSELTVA

PDGFRbeta extracellular domain (EC-PDGFRβ), sequence (P09619 33-532, one chain of several): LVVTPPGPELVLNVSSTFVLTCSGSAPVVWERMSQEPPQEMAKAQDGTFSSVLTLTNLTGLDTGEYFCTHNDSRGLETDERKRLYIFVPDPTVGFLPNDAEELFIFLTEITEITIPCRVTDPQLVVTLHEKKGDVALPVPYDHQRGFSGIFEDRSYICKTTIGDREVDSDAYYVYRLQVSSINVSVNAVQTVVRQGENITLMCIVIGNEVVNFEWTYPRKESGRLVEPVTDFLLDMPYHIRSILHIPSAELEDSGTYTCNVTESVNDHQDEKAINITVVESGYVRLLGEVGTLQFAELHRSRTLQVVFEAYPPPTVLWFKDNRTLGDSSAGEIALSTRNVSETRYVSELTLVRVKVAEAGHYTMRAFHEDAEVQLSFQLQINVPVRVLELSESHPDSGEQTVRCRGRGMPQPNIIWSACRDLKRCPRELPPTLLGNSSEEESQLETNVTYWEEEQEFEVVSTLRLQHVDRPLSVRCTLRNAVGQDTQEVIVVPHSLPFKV

Binder | Kd [1] [nM] | binding result [2]
B1 | 10.4 | –
UGUCGUGGGGCAUCGAGUAAAUGCAAUUCGACA (ssRNA, 2'-F all pyrimidines) [Gint4.T] | 9.6 | no binding
